The record followed here is patent US20260116983A1.

For test [1], the target named is human uPAR displayed on the surface of MDA-MB-231 cells (human) (UniProt Q03405). In words: cell-based or functional assay.
Test [2] deals with human uPAR (recombinant protein used in ELISA and BLI) (human) (UniProt Q03405). Nature of the test: ELISA, plate-coated human uPAR. On the technique in general: ELISA stands for enzyme-linked immunosorbent assay.
Test [3] has as its target human uPAR displayed on the surface of MDA-MB-231 cells (human) (UniProt Q03405). In words: flow cytometry (FACS) on MDA-MB-231 cells. A general note: In flow cytometry, cells or beads pass a laser one at a time.

Sequence of human uPAR displayed on the surface of MDA-MB-231 cells (human) (Q03405 23-305): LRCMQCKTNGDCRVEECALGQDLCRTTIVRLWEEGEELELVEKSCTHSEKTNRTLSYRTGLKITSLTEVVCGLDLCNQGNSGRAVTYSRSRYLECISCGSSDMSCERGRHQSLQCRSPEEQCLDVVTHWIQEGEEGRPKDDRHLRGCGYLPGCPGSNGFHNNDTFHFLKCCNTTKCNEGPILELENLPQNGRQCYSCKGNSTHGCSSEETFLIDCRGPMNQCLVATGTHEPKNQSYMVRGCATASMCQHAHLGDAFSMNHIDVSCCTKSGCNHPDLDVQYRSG
Sequence of human uPAR (recombinant protein used in ELISA and BLI) (human) (Q03405 23-305 limits assumed): as the sequence (Q03405 23-305) above

B1: 2G10 (antibody, from another filing, V domains shown)
VH: QVQLQQSGPGLVKPSQTLSLTCAISGDSVSSNSAAWNWIRQSPSRGLEWLGRTYYRSKWYNDYAVSVKSRIIINPDTSKNQFSLQLNSVTPEDTAVYYCARDPGGPLDDSFDIWGQGTMVTVSS
VL: DVVMTQSPLSLPVTPGEPASISCRSSQSLLRSNGYNYLDWYLQKPGQSPQLLIYLGSIRASGVPDRFSGSGSGTDFTLRISRVEAEDVGVYYCMQALQTPFTFGQGTKLEIKR
In test [1], B1 yielded an ADC Cytotoxicity Max % of 4.9%, an ADCC NK-92 EC50 of 22.5 nM, an ADCC NK-92 Max % of 33.9% and an ADCC PBMCs EC50 of 8.65 nM. Besides, in test [1], the ADCC PBMCs Max % is 65.5% and the Adhesion blocking EC50 worked out at 3500 nM. Moreover, in test [2], the EC50 (as a rule, the concentration that produces a half-maximal response) is 0.26 nM. In test [3], this molecule yielded a Cellular recognition Max % of 2200% and an EC50 of 16.6 nM.

B2: 3C6 (antibody, from another filing, V domains shown)
VH: QVQLQQWGAGLLKPSETLSLTCAVYGGSFSGYYWSWIRQPPGKGLEWIGEINHSGSTNYNPSLKSRVTISVDTSKNQFSLKLSSVTAADTAVYYCARGRRFGDFDYWGQGTLVTVSS
VL: QPVLTQPPSVSVAPGKTARITCGGNNIGSKSVHWYQQKPGQAPVLVVYDDSDRPPGIPERFSGSNSGNTATLTISRVEAGDEADYYCQVWDSSSDHSPFGTGTKVTVLG
In test [1], B2 displayed an ADC Cytotoxicity Max % of 1.42% and an Adhesion blocking EC50 of 810 nM. For the same molecule, the EC50 in test [2] stood at 0.28 nM. In test [3], this molecule yielded a Cellular recognition Max % of 971% and an EC50 of 292 nM.
